These results are taken from the supplement of paper PMC12636428.

The subject of the data set is Saccharomyces cerevisiae. In words: transcriptional activation domain activity (GFP:mCherry ratio, weighted mean of sorted bins, harmonized to initial dataset scale) (arbitrary fluorescence ratio units); higher = stronger transcriptional activation. Particulars: beta-estradiol 1 µM; induction time 4 h. In short, it runs like this:
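Each value is an activation activity: the read-weighted mean of bin median fluorescence, averaged across barcodes, then mapped linearly to the initial dataset scale. The tiles, fused to an estradiol-inducible synthetic transcription factor, sat at the yeast URA3 locus in GFP-reporter diploids. Cells spent 4 hours at 30 °C in SC with 1 uM beta-estradiol before sorting into 8 GFP:mCherry bins, and tiles below 50 reads were removed.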

Turning to “ICYVSLCVVISMCDLLVLWRCWVIWTALDHHLAYLVTFVPVIMLLSSFVMGTF”, the “transcriptional activation domain activity” value is 44100.
In the case of “MNAVQASGLVISLVLYVAVVFILLAGPLLFFLCYFFFLISITFPVHLPPMRVS” it was 63800; in that of “FLLSILFLLSFFYSFFSFSLFIFDRLCQFSHFVDLPSLHYLSLCVFLSILCLF”, 37100; in that of “EIAVEEPAQPMDVDGAVEAETDATTSKQDKKDKKKKKKASKESKVEAEPEAAA”, 48700.
The result for “VPLMQFILFPPFDWLVLVASPHNPILTSEFYNHLWSLIKLITLCLPLPLFGTL” reads 61500.
Take “TNNEFEGESDDFVHSPYLNSEADFSQILSSAPPVHHDPNETHQENQDIIDRFA”: the “transcriptional activation domain activity” value came out at 66800.
As for “ASTKGRADVRGRSGKAAPQKGRGKARVGSKRAPHFRGGGIAFGPRPRDFSTEL”, the “transcriptional activation domain activity” value came to 28300.
Regarding “LKHGMMRLDFLCKFSMYGGIERDNQFVKKATGVAFPCVFVLRCLKRPVLTESE”, the “transcriptional activation domain activity” value is 55100.
As to “EGPPSPDKGKAEDEKNEKPQANTAKKAKPTEEKKVGEGKKAAAGTGGAGAKKE”, the “transcriptional activation domain activity” value was 23200.
Take “DLLAHCKRELVHAIWTLLLDDVFLHAYKYGMVVRCADGVEQRIYPRIFTYSAD”: the “transcriptional activation domain activity” value stood at 41200.
Regarding “MTNQPTTQDGPSPVKHRACDECRSRKLACSKEPDGCSRCKKEGIVCHYSAQKQ”, the “transcriptional activation domain activity” value is 28400.
As to “ALRREYLTLNGFMPSRINWAIQSSGVDYLHLLIIAMEHLITRFRLSARLAITV”, the “transcriptional activation domain activity” value amounted to 53800.
On to “QFFFFVLSFFFFVGFVGADDLCSFILFLLFFSTPFFFIGKASLLSSFFAFHST”, for which the “transcriptional activation domain activity” value came out at 51700.
In the case of “MCSCVIRRHPLAKPKMGSFQSIGALTCSSCSSWKMCILLFLILVWFTFRLTSL” it was 21400; in that of “QRTNEDLDVDYVPYDHMGISFWDHLDPSRIAVPSHHNIFRIVVWLFFLVVYSQ”, 53700; in that of “MFVLYTSGWESLHFFFPSPLVSFVLCWVLTRSLYRFLEVWVAYSVCLLLFLHV”, 38600.
With “SGGEGTRRRASGRGRGRGRGRNGRGARAARGDGEKKEGETTEAAAPTSGETPA”, the “transcriptional activation domain activity” value was 34800.
Take “ICVLEKMLLFYFYFPLPFKLTLDQHLSLFSLLCFFFRVMPYTFWLKSYPMLVL”: the “transcriptional activation domain activity” value is 74200.
In the case of “TSIFGSNNNNTGSGMFGGNNNTNTGTPFGGGGGFGTNTNTNTAFGSKPFGSST” it was 17500; in that of “QNLFGYLERSLNRSTKLRATGMLKEGMVRIFIQKIEGSPFEVTMQFARKFFTA”, 35900; in that of “LVVFVFLILVVFVFLILVVFVFLILLILAFFVFLILLALLIFLILLVFLVFLV”, 30600.
For the sequence “QAGSTGSSSRKRKKAVTDGEETPSTSEPRRLRRSHEACARCRSKKIKASACDS”, the “transcriptional activation domain activity” value was determined as 28300.
“EEEGAVDEDEEEEDEEDPEERRKRELRERMAKMSGGMGMAGMFGGGMPMPGAA”: the “transcriptional activation domain activity” value is 58900.
In the case of “ALNTFLDGLVFQLFPMVADLWIAAAYFFVVFDAYYSLMVISVTWFYIWMTIYM” it was 55200; in that of “DLCFWLLDVCVLFSPGSCRLHQLSDKYFVEQLVLMNVFLIQVLLKFVFPLGRA”, 74800.
As for “MLLMPRLCPVYLIHFCMIYALHLVAPHLSFPLISSGFLIIFTLHYTSTLLTCL”, the “transcriptional activation domain activity” value was 49400.
Turning to “MSLSEWLRMIWVCFGRSTSCTIVRFSFHMRLIHVLIVVVLGTVRRHWLWSFVY”, the “transcriptional activation domain activity” value came out at 35500.
The result for “FARVLLNGWFRTFHKVVSTAECVAWLVLFLPYAIGVLLVVRCVLGFHDIPKPK” reads 45500; that for “GGKAKGRKGKEKEKEKEVADKPAARKCAAPKAAPKKATVKKAAKKVKETGKGS”, 28700; that for “SGGGRRRDGGGRRAGGRRDGAGGGRGRGDRGGGGGGGGERGERGGRPKKTQEE”, 50900.
On to “MTHALNIVTYLYRQHLLEDEHFLDWILRNLGPCPLERLLVWLLLVSLYWRDLI”, for which the “transcriptional activation domain activity” value was 49800.
The result for “MDKLVQYEHTFLPPPHMQYLSYFDCLENLAHYIDAIHPNNLNMWFFLIYDQCI” reads 63300; that for “WFAKFVVRLVYCLAWVRGQLLRRSSPIQTMMLALRCPHVLPWIDAGTPRLYIY”, 54700; that for “FLMLVCLEVIGRGLTNKVVLMPSGLYCIPNIIHPKGFQLALEIIFLVLFIPCP”, 39600.
In the case of “LACFLGLTFTLFLLIYFFFLSIFSFIILSLLCVLHHSACLPCLNFHMLPFCPF” it was 61100; in that of “HQPGPWESLDMPWAIGWGLGAFPGIPWDVFFFPLWPSTLFPGSPPPSLLEAPS”, 55500; in that of “EEERGEERREGEERVEQGEEGAGGEGDEEGRSAEHGAGGELAERRGEAGDAEV”, 22900.
